Measurements from the supplement of paper PMC10899765.

Experiments:
Settings in all cases: 20 nM; 72 h
[1] = tested on: MCF10A; experiment: percent viability (nuclei count relative to siNT); higher = more viable cells
Protocol: (§1)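 After 72 h, cells were fixed and stained with Hoechst and anti-fibrillarin, and nucleoli per nucleus were counted with CellProfiler. Values are plate-adjusted percent effect for the one-nucleolus and 5+ nucleoli phenotypes, normalised to siNT (0%) and to the positive controls siNOL11 or siKIF11 (100%), as the mean of biological triplicates. Percent viability is the nuclei count relative to siNT.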

[2] = tested on: MCF10A; experiment: 5+ nucleoli phenotype percent effect (relative to siNT 0% and siKIF11 100%); higher = more cells with five or more nucleoli
Protocol: as §1

[3] = tested on: MCF10A; experiment: one-nucleolus phenotype percent effect (relative to siNT 0% and siNOL11 100%); higher = more cells with one nucleolus (ribosome biogenesis inhibition)
Protocol: as §1

Sequence | percent viability [1] [%] | 5+ nucleoli phenotype percent effect [2] [%] | one-nucleolus phenotype percent effect [3] [%]
CCGGCAUGUCCAGGGCA [hsa-miR-4304] | 25.4 | 3.17 | 14.3
AACGGGAAUGCAGGCUGUAUCU [hsa-miR-4681] | 30.6 | 46 | -21
UUAAUAUCGGACAACCAUUGU [hsa-miR-889] | 108 | 0.0778 | -0.642
UAUGGCUUUUCAUUCCUAUGUGA [hsa-miR-135b-5p] | 47.9 | -32.7 | 21.8
GUGUCUUUUGCUCUGCAGUCA [hsa-miR-511] | 55.3 | -3.71 | -6.61
AGGACCUUCCCUGAACCAAGGA [hsa-miR-659-5p] | 40.3 | -33.7 | 34.3
GUGAGUGUGGAUCCUGGAGGAAU [hsa-miR-4658] | 52.7 | 0.899 | -8.09
CCUCAAAUGUGGAGCACUAUUCU [hsa-miR-372-5p] | 140 | 77.2 | -27.9
UCUCUCUCCCACUUCCCUGCAG [hsa-miR-7110-3p] | 25.4 | 1.36 | -0.286
CAAGCUCGUGUCUGUGGGUCCG [hsa-miR-99b-3p] | 84.3 | -2.82 | 8.24
UACGCGCAGACCACAGGAUGUC [hsa-miR-3939] | 38.1 | 11.7 | -5.45
AAUCAGUGAAUGCCUUGAACCU [hsa-miR-5094] | 63.5 | -13.9 | -15
GAAAAUCCUUUUUGUUUUUCCAG [hsa-miR-4668-3p] | 72.8 | 28.5 | -14.6
CAGGCACGGGAGCUCAGGUGAG [hsa-miR-3622a-5p] | 27.1 | -21.7 | 42.3
CGGCGCGACCGGCCCGGGG [hsa-miR-4634] | 71.2 | 24.7 | -14.3
AGAGAAGAAGAUCAGCCUGCA [hsa-miR-1253] | 84.6 | 37.9 | -16.8
AACGGCAAUGACUUUUGUACCA [hsa-miR-548al] | 58.9 | -4.48 | -4.22
UUGUGAAGAAAGAAAUUCUUA [hsa-miR-3611] | 53.1 | -15.1 | 12.5
AAUAUUAUACAGUCAACCUCU [hsa-miR-656] | 66.6 | 6.28 | 3.93
AGAGUUGAGUCUGGACGUCCCG [hsa-miR-219-1-3p] | 88.9 | 30.8 | -25
UCUGAAAGAGCAGUUGGUGUU [hsa-miR-4766-5p] | 56.2 | 2.75 | -18.9
UGAGGGACCCAGGACAGGAGA [hsa-miR-6875-5p] | 29 | -0.911 | 13.7
UGGGGACGUAGCUGGCCAGACAG [hsa-miR-3191-3p] | 26.7 | 4.11 | 32.8
CAUAAAGUAGAAAGCACUACU [hsa-miR-142-5p] | 82.4 | 15 | -15.5

Sequence | percent viability [1] [%] | 5+ nucleoli phenotype percent effect [2] [%] | one-nucleolus phenotype percent effect [3] [%]
UGGCGGCGGUAGUUAUGGGCUU [hsa-miR-4467] | 30.8 | -36 | 39.9
UGAAGCUCUGACAUUCCUGCAG [hsa-miR-6806-3p] | 26.6 | -18.7 | 15.3
CCGCUCUUCCCCUGACCCCAG [hsa-miR-6812-3p] | 163 | 54.6 | -35.5
AUUGACACCUCUGUGAGUGGA [hsa-miR-514b-3p] | 32.6 | -12.5 | 16.1
UUCAACAAGGGUGUAGGAUGG [hsa-miR-7159-5p] | 105 | 14.1 | -19.4
UCACAAGUCAGGCUCUUGGGAC [hsa-miR-125b-2-3p] | 37.1 | -44.2 | 59.8
CAAGUCUUAUUUGAGCACCUGUU [hsa-miR-1264] | 70 | 21.1 | -11.7
CUCAAACCGGCUGUGCCUGUGG [hsa-miR-6715b-3p] | 62.7 | -11.8 | 10
UUGGCCACAAUGGGUUAGAAC [hsa-miR-588] | 40.2 | 11.2 | 9.67
GGAUCCGAGUCACGGCACCA [hsa-miR-4454] | 56 | 0.148 | -14.9
AAGCAGCAGUGGCAAGACUCCU [hsa-miR-6838-5p] | 24.7 | -35.6 | 31.1
GGUGGGGCAAUGGGAUCAGGU [hsa-miR-3151] | 33.9 | 9.32 | -3.87
CUGCCAUGUCUAAGAAGAAAAC [hsa-miR-4659a-5p] | 68.5 | -0.515 | -12.3
UACUCAAAAAGCUGUCAGUCA [hsa-miR-888-5p] | 82.3 | 11.8 | -13.4
AAAGGUAAUUGCAGUUUUUCCC [hsa-miR-570-5p] | 95.2 | 56.8 | -30.8
CAACCCUAGGAGAGGGUGCCAUUCA [hsa-miR-652-5p] | 46.2 | -17.7 | 12.5
AAGCCUCUGUCCCCACCCCAG [hsa-miR-6819-3p] | 70.8 | -5.25 | -17.6
UCUCUGCUCUGCUCUCCCCAG [hsa-miR-6728-3p] | 28.9 | 19.2 | -7.63
AAAGACCGUGACUACUUUUGCA [hsa-miR-548ao-3p] | 80.6 | -18.1 | 18.2
AGACCCUGGUCUGCACUCUAUC [hsa-miR-504] | 64.6 | 3.4 | -10.9
UCCCCUGCUCCCUUGUUCCCCAG [hsa-miR-6810-3p] | 35.1 | 4.97 | 3.27
GUAAGCAGGGGCUCUGGGUGA [hsa-miR-6792-5p] | 30.2 | -36.8 | 56.4
AUGGUACCCUGGCAUACUGAGU [hsa-miR-1263] | 24.8 | -22.2 | 49.6
UUAGGCCGCAGAUCUGGGUGA [hsa-miR-1295a] | 33.2 | -12.5 | 8.73
